PMC7700444

Substrate: O=C(O)C(=O)O
Test: purified protein
Settings: 0.5 mM CoA, 5 mM ATP, 10 mM MgCl2, 2 mM DTT, 0.1 M Tris-HCl or NaPO4 pH 8.0, sodium oxalate as substrate

B1: GsAAE3 (Glycine max) (protein)
chain: MKDTMETPTTLTTLLRHVAAKFPSRRAISVAAKFDLTHSRLHRLVESAAAQLVSAGVKPGDVVALTFPNTIEFVVMFLAVIRARATAAPLNSAYTAEEFEFYLSDSESKLLLTSPEGNKPAQAAASKLSIPHATASITKAENEEAELSLSLLNHPELNSVNSVESLVNDPDDVALFLHTSGTTSRPKGVPLTQYNLLSSVKNIDSVYRLTESDSTVIVLPLFHVHGLIAGLLSSLGAGAAVALPAAGRFSASAFWKDMIKYSATWYTAVPTIHQIILDRHSSNPEPVYPRLRFIRSCSASLAPVILGKLEEAFGAPVLEAYAMTEASHLMASNPLPQDGAHKSGSVGKPVGQEMGILDESGRVQEAGISGEVCIRGSNVTKGYKNNVAANTASFLFDWFHTGDIGYFDSDGYLHLVGRIKELINRGGEKISPIEVDAVLLSHPEIAQAVAFGVPDAKYGEEIYCAVIPREGSNVDEAEVLRFSKTNLASFKVPKKVFITDSLPKTATGKILRRLVAEHFVSQI
In the case of B1, the Km is reported as 105.10 ± 12.30 µM.
